Results: patent US9404925B2, “Cancer antigen and use thereof” (MEDINET CO., LTD., priority 2002, dated 2016)

What was measured:
[1] = system: CD4 positive helper T cell lines (Th); experiment: IFN-γ and IL-4 ELISA of colon cancer patient Th induced by hsp105; format: cell-based, human; settings: FIG. 7B
Method: (§1) The spleen of a BALB/c mouse was collected and ground to separate spleen cells. 200,000 spleen cells per well on a 96-well flat plate were cultured in 200 μl of a culture solution containing IL-2 (100 IU/ml) and a 2 μg/ml recombinant hsp105 protein for 1 week. Thereafter, every week, the culture product was repeatedly stimulated with 200,000 spleen cells, which had been pulsed with a 2 μg/ml recombinant hsp105 protein and then exposed to radioactive rays, so as to establish multiple CD4 positive helper T cell lines (Th). The expression of CD4 and CD8 on the surface of cells was confirmed by performing immunofluorescent staining with Monoclonal Antibody MOUSE CD4-FITC, CD8-FITC (IMMUNOTECH, Marseille, France), and then analyzed with FACS (FIG. 6A). […] Thereafter, the intake of [^3H] thymidine was measured with a liquid scintillation counter. […] Thus, IFN-γ and IL-4 secreted from Th as a result of the reaction were measured with Mouse IFN-γ, IL-4 ELISA Ready-SET-Go! […]
(§2) Monocytes were separated from the peripheral blood. […] The expression of CD4 and CD8 on the surface of cells was confirmed by performing immunofluorescent staining using Pharmingen anti-human CD4, CD8-FITC, and then analyzed with FACS. […] In addition, in the same manner as in Example 7, IFN-γ and IL-4 secreted from Th as a result of the reaction were measured using Human IFN-γ, IL-4 US ELISA Kit (BIOSOURCE, Camarillo, Calif.). […]

Colon-26 = experiment: In vivo antitumor activity of mouse Th induced by hsp105, local injection into Colon-26 tumor; design: species or system BALB/c mouse; settings: tumor with a size of 3 mm, FIG. 6D
Method: as §1, with “6A). It was examined by the intake of [^3H] thymidine, whether or not Th specifically reacts with the hsp105 protein and grows. Specifically, 150,000 spleen cells were placed in each well of a 96-well flat plate, and several wells were pulsed with the hsp105 protein overnight, and the other wells were not pulsed therewith.” for “6A).”

[2] = system: CD4 positive helper T cell lines (Th); experiment: [3H] thymidine intake of mouse CD4 positive helper T cell line induced by hsp105; format: cell-based, BALB/c mouse; settings: spleen cells pulsed with hsp105 protein, 72 hours, FIG. 6B
Method: as §1, with “6A). It was examined by the intake of [^3H] thymidine, whether or not Th specifically reacts with the hsp105 protein and grows. Specifically, 150,000 spleen cells were placed in each well of a 96-well flat plate, and several wells were pulsed with the hsp105 protein overnight, and the other wells were not pulsed therewith.” for “6A).”

[3] = system: CD4 positive helper T cell lines (Th); experiment: [3H] thymidine intake of CD4 positive helper T cell line of colon cancer patient induced by hsp105; format: cell-based, human; settings: FIG. 7A
Method: as §1, §2

[4] = system: CD4 positive helper T cell lines (Th); experiment: IFN-γ and IL-4 ELISA of mouse Th induced by hsp105; format: cell-based, BALB/c mouse; settings: supernatant 24 hours after addition of Th, FIG. 6C
Method: as §1, with “6A). It was examined by the intake of [^3H] thymidine, whether or not Th specifically reacts with the hsp105 protein and grows. Specifically, 150,000 spleen cells were placed in each well of a 96-well flat plate, and several wells were pulsed with the hsp105 protein overnight, and the other wells were not pulsed therewith.” for “6A).”

B1: hsp105 protein: recombinant hsp105 protein, heat shock protein cancer antigen (SEQ ID NO: 1), used to induce CD4 positive helper T cell lines (protein, listed as Homo sapiens)
chain: MSVVGLDVGSQSCYIAVARAGGIETIANEFSDRCTPSVISFGSKNRTIGVAAKNQQITHANNTVSNFKRFHGRAFNDPFIQKEKENLSYDLVPLKNGGVGIKVMYMGEEHLFSVEQITAMLLTKLKETAENSLKKPVTDCVISVPSFFTDAERRSVLDAAQIVGLNCLRLMNDMTAVALNYGIYKQDLPSLDEKPRIVVFVDMGHSAFQVSACAFNKGKLKVLGTAFDPFLGGKNFDEKLVEHFCAEFKTKYKLDAKSKIRALLRLYQECEKLKKLMSSNSTDLPLNIECFMNDKDVSGKMNRSQFEELCAELLQKIEVPLYSLLEQTHLKVEDVSAVEIVGGATRIPAVKERIAKFFGKDISTTLNADEAVARGCALQCAILSPAFKVREFSVTDAVPFPISLIWNHDSEDTEGVHEVFSRNHAAPFSKVLTFLRRGPFELEAFYSDPQGVPYPEAKIGRFVVQNVSAQKDGEKSRVKVKVRVNTHGIFTISTASMVEKVPTEENEMSSEADMECLNQRPPENPDTDKNVQQDNSEAGTQPQVQTDAQQTSQSPPSPELTSEENKIPDADKANEKKVDQPPEAKKPKIKVVNVELPIEANLVWQLGKDLLNMYIETEGKMIMQDKLEKERNDAKNAVEEYVYEFRDKLCGPYEKFICEQDHQNFLRLLTETEDWLYEEGEDQAKQAYVDKLEELMKIGTPVKVRFQEAEERPKMFEELGQRLQHYAKIAADFRNKDEKYNHIDESEMKKVEKSVNEVMEWMNNVMNAQAKKSLDQDPVVRAQEIKTKIKELNNTCEPVVTQPKPKIESPKLERTPNGPNIDKKEEDLEDKNNFGAEPPHQNGECYPNEKNSVNMDLD
- IFN-γ and IL-4 secreted from Th [1]: generates a large amount of IFN-γ
- growth of Colon-26 tumor after local injection of Th (Colon-26): clearly retarded
- hsp105 protein-specific growth of Th ([3H] thymidine intake) [2]: specifically reacted with the hsp105 protein and grew
- hsp105 protein-specific growth of Th ([3H] thymidine intake) [3]: specifically reacted with the hsp105 protein and grew
- IFN-γ and IL-4 secreted from Th [4]: generates a large amount of IFN-γ
